{"source": "the nanobody polyreactivity screen of Harvey et al. (2022)"}
{"assay": "yeast display, Sf9 membrane polyspecificity reagent, FACS + sequencing; frameworks hold sequencing errors", "method_in_brief": "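Galactose-induced (36–48 hours) yeast carrying a synthetic nanobody display library were exposed to 10% biotinylated, detergent-solubilized Sf9 membrane reagent at 4 °C for 1 hour. FACS followed streptavidin microbead enrichment, using low and high (top ~1%) gates for expression (anti-HA) and reagent binding (streptavidin). Colony PCR, MiSeq 2 × 250 sequencing and CDR-length filtering followed. Labels for polyreactivity reflect the gate of origin.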"}
{"sequence": "QVQLVESGGGIVQAGGSLRLSCAASGIIFWDNAMGWYRQAPGKERELVASINYSGGSTYYADSVKGRFTISRDNAKNTVYLQMNSLKPEDTAVYYCAARTVTLDDWDYAYDYWGQGTQVTVSS", "polyreactivity (PSR sort gate)": "low polyreactivity"}
{"sequence": "QVQLVESGGGIVQAGGSLRLSCAASGITFGRYVMGWYRQAPGKERELVAAISRSGGSTYYADSVKGRFTISRDNAKNTVYLQMNSLKPEDTAVYYCAADLRQTGYGWYDYWGQGTQVTVSS", "polyreactivity (PSR sort gate)": "high polyreactivity"}
{"sequence": "QVQLVESGGGIVQAGGSLRLSCAASGLIFRRYTMGWYRQAPGKERELVAAIRNSGSSTDYADSVKGRFTISRDNAKNTVYLQMNSLKPEDTAVYYCAKRSARKLTYDSWGQGTQVTVSS", "polyreactivity (PSR sort gate)": "low polyreactivity"}
{"sequence": "QVQLVESGGGIVQAGGSLRLSCAASGLILYWYAMGLYRQAPGKERYLVAAISISGGSTYYADSVKGRFTISRDNAKNTVYLQMNSLKPEDTAVYYCAAVYFYSWEGDGDYWGQGTQVTVSS", "polyreactivity (PSR sort gate)": "low polyreactivity"}
{"sequence": "QVQLVESGGGIVQAGGSLRLSCAASGLTFSIYPIGWYRQAPGKERELVAAISWSGGSTYYADSVKGRFTISRDNAKNTVYLQMNSLKPEDTAVYYCAARVYRPWWSYDYWGQGTQVTVSS", "polyreactivity (PSR sort gate)": "high polyreactivity"}
{"sequence": "QVQLVESGGGIVQAGGSLRLSCAASGLTICDYAMGWYRQAPGKERELVAAISSSGGRTYYADSVKGRFTISRDNAKNTVYLQMNSLKPEDTAVYYCAAQSKYYQYYSWGQGTQVTVSS", "polyreactivity (PSR sort gate)": "high polyreactivity"}
{"sequence": "QVQLVESGGGIVQAGGSLRLSCAASGNNIGGNAMGWYRQAPGKERELVAAISNSGVRTYYADSVKGRFTISRDNAKNSVDLQMNSLKPEDTAVYYCYVLGNYYGKFDYWGQGTQVTVSS", "polyreactivity (PSR sort gate)": "high polyreactivity"}
{"sequence": "QVQLVESGGGIVQAGGSLRLSCAASGRIFDGYAMGWYRQAPGKESQLVAAISATGGSTYYADSVKGRFTISRDNAKNTVYLQMNSLKPEDTAVYYCATDYVRGLYRYKLSRYEYWGQGTQETVSS", "polyreactivity (PSR sort gate)": "low polyreactivity"}
{"sequence": "QVQLVESGGGIVQAGGSLRLSCAASGRIFGYYAMGWYRQAPGKERELVARISSSGGSTYYADSVKGRFTISRDNAKNTVYVQMNSLKPEDTAVDYCNTASNRYPGWRAEFDYWGQGTQVTVSS", "polyreactivity (PSR sort gate)": "low polyreactivity"}
{"sequence": "QVQLVESGGGIVQAGGSLRLSCAASGRIFNRYAMGWYRQAPGKKWELVATISVSGANTYYADSVKGRFTISRDNAKNTVYLQMNSLKPEDTAVYSCNVKRGTIGGYYYWGQVTQVTVSS", "polyreactivity (PSR sort gate)": "high polyreactivity"}
{"sequence": "QVQLVESGGGIVQAGGSLRLSCAASGRIFSEYAMGWYRQAPGKERELVARITSSGGSTSYADSVKGRFTISRDNAKNTVYLQMNSLNPVDTAVYYCAGDGVWRRFYYLHYYWGQGTQVTVSS", "polyreactivity (PSR sort gate)": "high polyreactivity"}
{"sequence": "QVQLVESGGGIVQAGGSLRLSCAASGRIFSPNAMGWYRQAPGKERELVASISSAGSTNYADSVKGRFTISRDNAKNTVDLLMKSLIPEDTAVYYCDADQPYYGYWDWYSHEYDYWGQGTQVSVSS", "polyreactivity (PSR sort gate)": "low polyreactivity"}
{"sequence": "QVQLVESGGGIVQAGGSLRLSCAASGRIFSVYAKGWTRQAPGKERELVAAISSGGTTYYADSVKGRFTNSRDNAKNTVYLLMNSQKPDDTAVYYFAASVYYYRYNYWGQGTQVTVSS", "polyreactivity (PSR sort gate)": "low polyreactivity"}
{"sequence": "QVQLVESGGGIVQAGGSLRLSCAASGRIFTRYVMGWYRQAPGKERELVAAITGRGTTTYYADSVKGRFTISRDNAKNTVYLKMNSLKPEDTAVYYCAATYYASNPQFTTNYGYWGQGTQVTVSS", "polyreactivity (PSR sort gate)": "high polyreactivity"}
{"sequence": "QVQLVESGGGIVQAGGSLRLSCAASGRIFVRYAKGWYRQAPGKERELVAAITKSGGSTYYADSEKGRFTISRDTAKNTVYLQMNCLQPDDTAVYYCNADRFYIDYTNTYDSIRDYWGQGTLVTVSS", "polyreactivity (PSR sort gate)": "low polyreactivity"}
{"sequence": "QVQLVESGGGIVQAGGSLRLSCAASGRIYRYNAMGWYRQAPGKERELVASINQRGGSTYYADSVKGRFTISRDNAKNTVYLQMNSLKPEDTAVYYCAQSFNSGYYYWGQGTQVTVSS", "polyreactivity (PSR sort gate)": "high polyreactivity"}
{"sequence": "QVQLVESGGGIVQAGGSLRLSCAASGRNFDVYAMGWYRQAAGKERELVATISSSGVSTSYADSVKGRFTISRDNAKNTVYLQMNSLKPEDSAVYYCARKFLWKGFDYWGQGTQVTVSS", "polyreactivity (PSR sort gate)": "low polyreactivity"}
{"sequence": "QVQLVESGGGIVQAGGSLRLSCAASGRNSNRYAMGWYRQAPGKEREFVAAISKSGTSTYYADSVKGRFTISRDNAKNTVYLQMNSLKPEDTAVYYGAAKTGVGLRVNSGIGFYYWGQGTQVTVSS", "polyreactivity (PSR sort gate)": "high polyreactivity"}
{"sequence": "QVQLVESGGGIVQAGGSLRLSCAASGRSFPNNAMGWYRPAPGKERELLAAISSGSSTDYADSVKGRFTISRDNAKNTVSLQMNSLKPEATAVYYCNAGDYTYPGSPWPGYAYDYWGLGTQVTVSS", "polyreactivity (PSR sort gate)": "low polyreactivity"}
{"sequence": "QVQLVESGGGIVQAGGSLRLSCAASGRSFYRYARGWDRQAPGKERELVASITRSGITHYADSVKGRFTISRDNAKNPVYLQMISLKPEDTAVYYCNGRRGSPAPYDYWGQGTQVTVSS", "polyreactivity (PSR sort gate)": "high polyreactivity"}
{"sequence": "QVQLVESGGGIVQAGGSLRLSCAASGRTFAGYAMGWYRQAPGKERELVAGISVDDSTTYYADSVKGRFTISRDNANNTVYLQMISLKPEDTAVYYCNADYIDTFRGFDYWGQGTLVTVSS", "polyreactivity (PSR sort gate)": "low polyreactivity"}
{"sequence": "QVQLVESGGGIVQAGGSLRLSCAASGRTFFYYAMGWYRQAPGKERELVAAITTDGGTTYYADSVKGRFTISRDNAKNTVSLQMNSLKPEDTAGYYCAADASYQYYPYDYWGQGTQVTVSS", "polyreactivity (PSR sort gate)": "low polyreactivity"}
{"sequence": "QVQLVESGGGIVQAGGSLRLSCAASGRTFGYYAMRWYRQAPGKERELVAAIYWSGGSTRYADSVKGRFTISRDNAKNTVYLQMNSLNPDDTAVYYCAADSWYSFAGVYRVYGEDYWGQGTEVTVSS", "polyreactivity (PSR sort gate)": "low polyreactivity"}
{"sequence": "QVQLVESGGGIVQAGGSLRLSCAASGRTFKSYAMGWYRQAPGKERELVAAISRSGDRTYYADSVKGRFTISRDNAKNTVYLQMNSLKREDTAVYYCNARAVTGDRSDDYWGQGTHVTVSS", "polyreactivity (PSR sort gate)": "high polyreactivity"}
{"sequence": "QVQLVESGGGIVQAGGSLRLSCAASGRTFKWNAMGWYRQAPGKEREFVATISYSGGSTYYADSVKGRFTISRDIAKNSVYLQMKSLKPEDSAVYYCAAGSPYRFWHRFDYWGQGTQVTVSS", "polyreactivity (PSR sort gate)": "high polyreactivity"}
{"sequence": "QVQLVESGGGIVQAGGSLRLSCAASGRTFSPYAMGWYRQAPGKERELVAGITWSGGSTYYSDSVKGRFTISRDYAKNPVYFQMNFLKPEDTAVYYCNAVGTYAYYCSFAYDYWGQGTQVNVSS", "polyreactivity (PSR sort gate)": "high polyreactivity"}
{"sequence": "QVQLVESGGGIVQAGGSLRLSCAASGRTFSWNTMGWYRQAPGKERELVAAITRVGTTYYADSVKGRFTISRDNAKNTVYLQMNSLKPEDTAVYYCAVKGPRWAYPGVDYWGQGTQVTVSS", "polyreactivity (PSR sort gate)": "high polyreactivity"}
{"sequence": "QVQLVESGGGIVQAGGSLRLSCAASGRTFYPNGMGWYRQERGKERQLVAAITSGGRTNYADSVKGRFTISRDNAKNTVYLQMHSRKPEDTAVYYSNAVKRRSTSSGMDYWGQGTQVTVSS", "polyreactivity (PSR sort gate)": "high polyreactivity"}
{"sequence": "QVQLVESGGGIVQAGGSLRLSCAASGRTSWYYAMGWYRQAPGKERELVAAITASGGSTYADSVKGRFTISRDNAKTSVYLQMNRLKPEDSAVYYCAAERPYSRVGYYYWGQGTQVTVSS", "polyreactivity (PSR sort gate)": "high polyreactivity"}
{"sequence": "QVQLVESGGGIVQAGGSLRLSCAASGSIFFYYAMGWFRPAPGQERELVAAITSSGGTTYYADSVKGRFTISRDNAKNTVYLEMNSLKPEDTAVYDCNALTVGQRDYDYWGQGTQVTVSS", "polyreactivity (PSR sort gate)": "high polyreactivity"}
{"sequence": "QVQLVESGGGIVQAGGSLRLSCAASGSIFYGYAMGWYRQAPGNERELVAAISSGGRTKYADSVKGRFTISRDNAKNTVYLQMNSLKPEDTAVYYCNVSYLVYRWNFGWSMDYWGQGTQVTVSP", "polyreactivity (PSR sort gate)": "low polyreactivity"}
{"sequence": "QVQLVESGGGIVQAGGSLRLSCAASGSIQRYNDMGWYRQAPGKERELVAAISRSGGSTYYTDSVKGRFTISRDNAKNTDYLQMNSLKPEDTAVYFCYKASYTTVYAKYYYWGLGTQVTVSS", "polyreactivity (PSR sort gate)": "high polyreactivity"}
{"sequence": "QVQLVESGGGIVQAGGSLRLSCAASGSTFATYAMGWYRQAHGKERELVAAITRSGGITYYADSVKGRFTISRDNAKKTVYLHMKSLKPEDTAVYYCNARTRSPTFSGRYYWGQATQVTVSS", "polyreactivity (PSR sort gate)": "high polyreactivity"}
{"sequence": "QVQLVESGGGIVQAGGSLRLSCAASGSTFDGYAMGWYRQAPGKERELVAAITRSGGSTYYADSVKGRFTISRDNAKNTVYLQMNSLKPEDTEVYYCNKYGYKGGVGYDYWGQGTQVTVSS", "polyreactivity (PSR sort gate)": "high polyreactivity"}
{"sequence": "QVQLVESGGGIVQAGGSLRLSCAASGSTFNDNAMGWYRQAPGNERELVAAITGGGGRTYYADSVKGRFTISRDNAKNTVYLQMNSLKPEATAVYYCNRGATFEYWGHGTQVTVSS", "polyreactivity (PSR sort gate)": "low polyreactivity"}
{"sequence": "QVQLVESGGGIVQAGGSLRLSCAASGSTFQTYVMGWYRQAPGKERELVAAISSGGSTNYADSVKGRFTISRDNAKNTVYLQMNSLKPEDTAVYYCAKRWPYFRRGKDGYWGQGTQVTVSS", "polyreactivity (PSR sort gate)": "low polyreactivity"}
{"sequence": "QVQLVESGGGIVQAGGSLRLSCAASGSTFRGYAMGWYRQAPGKERELVAAITYISDSTYYADSVKGRFTISRDNAKNTVYLQMNCLKPVDTAVYYCNAYYDGDWRYTSQETGDHWGQGTQVTVSS", "polyreactivity (PSR sort gate)": "low polyreactivity"}
{"sequence": "QVQLVESGGGIVQAGGSLRLSCAASGSTFSSYAMGWYRQAPGKERELVAGITNSGGSTYYADSVKGRFTISRDNAKNTVYLQMNSLKPEDTAVYYCAAFPRTYSGYYYWGQGTQVTVSS", "polyreactivity (PSR sort gate)": "high polyreactivity"}
{"sequence": "QVQLVESGGGIVQAGGSLRLSCAASGSTFVNYTMGWYRQAPGKERELVATITWSGDSTYYADSVKGRFTISRDNAKNTVYLQMNSVKPEDTAVYYCAGAPLETYYYWGQGTQVTVSS", "polyreactivity (PSR sort gate)": "low polyreactivity"}
{"sequence": "QVQLVESGGGIVQAGGSLRLSCAASGSTSRDYAMGWYRTAPGKERELVAAITWSGGRTYYADSVKGRFTISRDNAKNTVYLQMNSLKPEDTAVYYCAAYHREGRRDDYWGQGTQVTVSS", "polyreactivity (PSR sort gate)": "low polyreactivity"}
{"sequence": "QVQLVESGGGIVQAGGSLRLSCAASGYIFKYYAMGWYRQAPGKERELVAAITGGVSTNYADSVKGRFTISRDNAKNTVYLQMNSLKPEDTAVYYCAAAITPSDTGSEYDYWGQGTQVTVSS", "polyreactivity (PSR sort gate)": "low polyreactivity"}
